These results are taken from article PMC3338420.

In assay [1] the target is Rab6a/RPRdel complex (Rab6a with RUN1-PLAT-RUN2 of DENND5A, loop 813–835 deleted) (human | mouse) (UniProt P20340). As to the kind of experiment: SPR; Biacore X-100, 293 K; Rab6/RPRdel or Rab6/RPdel amine-coupled to a CM5 chip (about 2,500 RU); SNX1 fragments as analytes, 0.2 to 40 µM; 100 mM NaCl, 1 mM DTT, 0.005% P20, 10 mM HEPES pH 8.0; multi-cycle; equilibrium KD from a 1:1 model. (In SPR one partner is held on a chip, and binding of the other changes the refractive index at the surface.)

In the next assay the target is SNX18 (Homo sapiens) (UniProt Q96RF0). The following applies: cited from earlier work.
UniProt Q96RF0, sequence (Q96RF0 whole entry): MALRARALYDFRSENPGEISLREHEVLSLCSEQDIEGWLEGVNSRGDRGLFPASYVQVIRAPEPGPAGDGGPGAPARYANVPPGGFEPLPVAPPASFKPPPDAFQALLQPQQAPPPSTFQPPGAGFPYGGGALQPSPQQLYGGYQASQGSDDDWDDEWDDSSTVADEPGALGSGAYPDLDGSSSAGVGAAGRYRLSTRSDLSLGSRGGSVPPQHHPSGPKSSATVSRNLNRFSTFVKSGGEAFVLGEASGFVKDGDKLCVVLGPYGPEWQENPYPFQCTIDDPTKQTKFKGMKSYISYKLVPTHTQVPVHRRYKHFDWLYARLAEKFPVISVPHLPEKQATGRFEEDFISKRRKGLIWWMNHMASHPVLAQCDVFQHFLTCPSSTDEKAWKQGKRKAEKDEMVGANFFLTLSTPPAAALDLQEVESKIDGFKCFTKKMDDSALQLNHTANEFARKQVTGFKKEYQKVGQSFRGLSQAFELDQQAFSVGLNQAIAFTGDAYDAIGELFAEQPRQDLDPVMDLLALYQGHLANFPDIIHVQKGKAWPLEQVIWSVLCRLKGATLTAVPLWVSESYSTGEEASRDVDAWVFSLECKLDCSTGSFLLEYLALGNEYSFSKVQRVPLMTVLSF

UniProt P20340, sequence (P20340 8-195 Q72L, chain 1 of 2): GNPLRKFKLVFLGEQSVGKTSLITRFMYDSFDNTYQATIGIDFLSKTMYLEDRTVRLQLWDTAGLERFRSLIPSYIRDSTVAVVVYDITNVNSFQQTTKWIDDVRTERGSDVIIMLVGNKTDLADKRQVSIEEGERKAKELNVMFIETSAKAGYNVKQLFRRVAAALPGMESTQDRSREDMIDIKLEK
UniProt P20340, sequence (Q6PAL8 other isoform, or with tags, fused parts or gaps, chain 2 of 2, further chain): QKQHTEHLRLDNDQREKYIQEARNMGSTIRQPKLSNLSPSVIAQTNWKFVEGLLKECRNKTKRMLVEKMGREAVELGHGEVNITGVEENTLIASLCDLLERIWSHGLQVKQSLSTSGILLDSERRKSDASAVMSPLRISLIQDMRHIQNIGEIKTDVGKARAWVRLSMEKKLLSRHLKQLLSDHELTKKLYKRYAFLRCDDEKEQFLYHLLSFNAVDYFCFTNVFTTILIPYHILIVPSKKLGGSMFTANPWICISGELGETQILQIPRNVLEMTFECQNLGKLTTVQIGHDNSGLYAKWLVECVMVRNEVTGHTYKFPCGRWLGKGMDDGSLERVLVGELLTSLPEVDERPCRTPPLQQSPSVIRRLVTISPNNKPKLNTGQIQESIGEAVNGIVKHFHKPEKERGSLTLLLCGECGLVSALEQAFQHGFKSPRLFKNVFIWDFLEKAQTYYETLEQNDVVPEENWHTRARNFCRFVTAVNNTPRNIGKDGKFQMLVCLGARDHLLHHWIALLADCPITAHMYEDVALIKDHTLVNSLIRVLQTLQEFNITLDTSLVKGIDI

For orientation: Kd means the concentration at which binding is half-saturated. In assay [1], “SNX1 SNX-PX (9–303) (from UniProt Q9WV80 9-303) (domain or fragment)” displayed a Kd of 1700 nM.

With FIP5 (from UniProt Q9BXF6), the Kd in the assay with SNX18 (Homo sapiens) was 1600 nM.
